The EC50 is the concentration that produces a half-maximal response.

Results on one molecule are retold here after patent EP4659811A1 (Université de Strasbourg, dated 2025).

Experiment [1] concerns the target VP1 capsid protein on BKV pseudovirions of genotype IVc2 (A-66H; AB369093) (BK virus genotype IVc2 (A-66H)). The experiment is described as follows: cell-based or functional assay.
The target in experiment [2] is VP1 capsid protein on BKV pseudovirions of genotype II (GBR-12; AB263920) (BK virus genotype II (GBR-12)). The experiment is described as follows: cell-based or functional assay.
Experiment [3] concerns the target VP1 capsid protein on BKV pseudovirions of genotype Ia (BK-D; JF894228) (BK virus genotype Ia (BK-D)). Description: cell-based or functional assay.
The target of experiment [4] is T1, VP1 pentamer of BKV genotype IV (recombinant) (BK virus genotype IV, UniProt P14996 30-300).
T1 construct: also called GIV; VP1 BKV subtype IV; not shown: N-terminal His-tag of pESPRIT002; C-terminal biotin acceptor peptide (BAP) of pESPRIT002
Description: ELISA, coated VP1 pentamer. A general note: In an ELISA, binding on a coated surface is turned into a signal by an enzyme label.

Experiment [5] concerns the target T2, VP1 pentamer of BKV genotype II (recombinant) (BK virus genotype II, UniProt P14996 30-300).
T2 construct: also called GII; VP1 geno II pentamer; not shown: N-terminal His-tag of pESPRIT002; C-terminal biotin acceptor peptide (BAP) of pESPRIT002
The experiment is described as follows: ELISA, coated VP1 pentamer.

B1: antibody F2P7 (antibody, V domains shown)
VH: EVQLVQSGGGLVQPGGSLKLSCAASGFSSSGSEIHWVRQASGRGLEWIGRVRSTANRHAPGYTESVRGTFTVSRDESKNTASLELKSLKIEDTAVYYCTGVRGVISRYFAMDVWGQGTTVTVSS
VL: QSALTQPASVSGSPGQSITISCTGTNSDLGSYNYVSWYRLHPGKDPHLIIYDVTHRPSGVSSRFSGSKSGKTASLTISGLQSEDEAEYFCCSYASVGSPIFGGGTKVTVL
Regarding B1, the “Neutralization PSV IC50” value in experiment [1], in experiment [2] and in experiment [3] was more than 50 µg/mL each time. Further, the EC50 in experiment [4] amounted to 4 µg/mL; in experiment [5], 10 µg/mL.
